experiment: soluble on expression in E. coli; label from the status in PepcDB or PDB records

Sequence	soluble on expression in E. coli
MGGSHHHHHHGMASAQETNQTPGPMLCSTGCGFYGNPRTNGMCSVCYKEHLQRQQNSGRMSPMGTASGSNSPTSDSASVQRADTSLNNCEGAAGSTSEKSRNVPVAALPVTQQMTEMSISREDKITTPKTEVSEPVVTQPSPSVSQPSTSQSEEKAPELPKPKKNRCFMCRKKVGLTGFDCRCGNLFCGLHRYSDKHNCPYDYKAEAAAKIRKENPVVVAEKIQRI	not soluble
MSLKYLVMNAGRLFLSLLKESGVNKIFIVSGTDYASLIEAKVEDSSLPEFEIVPHEITAISTAIGYALGNKLSAVAVHTTPGTANALGGIMSAFTSRIPLLVIAGRSPYTEKGNTASRNLRIHWTQEARDQGELVRQYVKYDFEIRMADQLPAVVSRAIQIMMSEPRGPVYIVLPREVSIQEVNEARRIPMDYYEPAPSPDKINKAKEMLEKSERPLIITWRAGRRKEWFESLRRFADNYNIPVLNYAGEVLNYPSSGPMALDRFDLRNSDLLLVVEAEVPYFPKKIDLDIPIVKIDVDPSYSYIPYYGFRCDLCIQSTPSNFFDYISIRPKSYDEIKELRAKQEEYKKQEIERLKDKKPIHPKYLSYEIGIVASEYNLVIFNEYQFNPRYARLNEFGSYFADLSVGYLGFALGAGVGYKIATNKDVLITTGDGSFIFGVPEAFYYVASKYPTMVVIYDNGGWLASAEAVDEVFPEGLAKSKKYYPGADFDRRFEIGKTVETFHGYYELVEDPWEIKPALIRGLEKMRRENKIAVIQVIVDKVREGHHHHHH	not soluble
GPGSMASSKVILEDTFTVAAVNEEGTVYSRVSRVRCTGEGGGLIITSDVNTGEFPLHSGDRLTIILTDSIELSEQAGSKHYDQSVYHRSTRLDDCDYAMHGRVYSMEVNESSLDVTVHISCGGLLTQIVGKPQSLKDVHYNSDVYILMKRPGS	soluble
MGSDKIHHHHHHMNNQEKNMLGFNQDEYLTSAREIIAARQKAEQVADEIYQAGFSSLFFASVGGSLAPMMAINEFAKELTTLPVYVEQAAELIHKGNKRLNKDSVVITLSKSGDTKESVAIAEWCKAQGIRVVAITKNADSPLAQAATWHIPMRHKNGVEYEYMLLYWLFFRVLSRNNEFASYDRFASQLEILPANLLKAKQKFDPQADAIASRYHNSDYMMWVGGAEMWGEVYLFSMCILEEMQWKRTRPVSSAEFFHGALELLEKDVPLILVKGEGKCRALDERVERFASKITDNLVVIDPKAYALDGIDDEFRWIMAPCVVSTLLVDRLAAHFEKYTGHSLDIRRYYRQFDY	soluble
MSLASAMASSALREATCTMTRLAADVAASVSSIFSCKDSAGPRPVVPATKTTSTPLDVMFFTWFAKSSGSSLPPLKVVMTGATISIDSTRGALKKLARKGIKGWLNQYMATIKEIEPIVLYEQETDARWASYSILVRVVTSDGRVSYGEAVPTLRILPVVSAVRQTARAFLGRDPHEISAAFYEWYRQDFFLSRSFESATALSAIDMALWDLKARELGAPLYELLGGKLRDRVKVYANGWYGGCRDPQCFAEKAKEVVARGYDALKFDPFGPSFNSITSEELRRAEEAVAAVRDAVGDDVDILIEHHGRFNANAAVEIAKRFEPYRPYFMEEPLHHEDIEGYRKYRSLTSARIAMGERLISAKEALQYLVEGLVDVIQPDACNIGGVTGSMKVAALAEAFSVEVSYHNAYGPVQFALEVQLSAVTPTLYRLESFYDYWPQWKRDLIGDPFRLSQSSVEVPRGPGIGVAVNERVLEKYRAEPSEIPVGEEPVWVVRGTWREGHHHHHH	not soluble
MGGSHHHHHHGMASALYAKGGKGSAVPSDSQAREKLALYVYEYLLHIGAQKSAQTFLSEIRWEKNITLGEPPGFLHSWWCVFWDLYCAAPDRREACEHSGEAKAFQDYSAAAAPSPVMGSMAPGDTMAAGSMAAGFFQGPPGSQPSPHNPNAPMMGPHGQPFMSPRFPGGPRPTLRMPSQPPAGLPGSQPLLPGAMEPSPRAQGHPSMGGPMQRVTPPRGMASVGPQSYGGGMRPPPNSLAGPGLPAMNMGPGVRGPWASPSGNSIPYSSSSPGSYTGPPGGGGPPGTPIMPSPGDSTNSSENMYTIMNPIGQGAGRANFPLGPGPEGPMAAMSAMEPHHVNGSLGSGDMDGLPKSSPGAVAGLSNAPGTPRDDGEMAAAGTFLHPFPSESYSPGMTMSV	not soluble
MKTQFIAGHARLPAGMAAKSLYDTLTITAEIDKKYGVIVEASCTLATEHGRDYVARLLRGHSLRDGIDGLLAELDEGYLGKAHSALCAALKDLYKQYCKMEEKEP	not soluble
MGSDKIHHHHHHMIEQQMPFRRILLTSDTFQILKEGQIISTFNKCGIFYCQRGSVEVSLEGCHYHIKPGDVYIYMASTLVHLLHKSEDAEGIMVEVDFYYILPIVNKVINVESQLFMRKNPCVSLSGEQCAHFEYLLNNLWDRINAEDCQKENVQYQHLKLELIKSMGQTICYEILNMYFTNQPLQPLQQGKKDVVFQNFMLSLFRFYRKERDVSFYARMQHITPRYFSAIIKEKTGDSALQWIVRMVITEAKQLLEESDLSIKEIADQLNFPTQSFFGKYFKQYVGVSPKEYRNNAATTRIKR	not soluble
MAHHHHHHMYVVGPMVDQSELPFRMLCRRYGATLAYSPMLHARSFAQSAQYRARYFSTTPHRAEPAMTATVSGEGEAAEDAGRTSDGKETDHPLFVQFCGNDADTLLAAARHVEDDCEAVDVNLGCPQGIARRGHYGSFLMEDWDRVHNILHCLAVELRVPVTAKMRVFDDDALTLKYAEMLRDTGIAVLCVHGRTRHNKRGLADMEKIRRVREHLRGSIPVIGNGNVLTFEDVRRNMSVTMTDGYMCAEPLLWDPRLFAAPLHPVRNGRCFAECCEARLDAIRTAQEYLQLVQRYPVDLAFVKAHLFKMLFHSYEMHPVMHGWLTNFSCNGRGGNNNNNAGSDVNGEVEDGDIDDGRSPDGASESGSGNANKAESNVKQAAGNLDFFAFAMDALGEHLRQLYAAEVSCGVEGPQPKRAHEREKGVNDDTSSSAKRKVETSHDAFAEDDVFGIDFDLNKK	soluble
MITQNIESLNNIAKIQHAANTDYLTDLANRRAFFRSAESRIKEYINKKVPYCLAMIDVDFFKKVNDTYGHDSGDQVLKVIALYMRKHFGAGLTARLGGEEFAVLLHGLDADYLHNKLDDFRREIAVSSIPAGDTSISITLSLGVVFDSEDELSKQMNEADNALYAAKENGRNQIVVFGAELDDLEHHHHHH	soluble
EVQLVESGGGLVKPGGSLRLSCAASGFTFSSYSMNWVRQAPGKGLEWVSSISSSSSYISYADSVKGRFTISRDNAKNSLYLQMNSLRAEDTAVYFCARDYDFWSAYYDAFDVWGQGTMVTVSSASTKGPSVFPLAPSSKSTSGGTAALGCLVKDYFPEPVTVSWNSGALTSGVHTFPAVLQSSGLYSLSSVVTVPSSSLGTQTYICNVNHKPSNTKVDKKVEPKSCAADEVDHHHHHH	soluble
MTLTDISLAQAFISIPQDVIALDLSNNLLGSKSCVDLLVNIADCIPAGVTSLDLSSNGLRLTQVSLVTPKHVTSLNLCFNPLHEISIDGLEWLKDSLAHIQIIYLSYDMVNNMSREQRQAFRAVIPNIQTIILVDKNGKEIGPSHTAKIANLISELGGGNPEVPSLEHHHHHH	not soluble
METFYRTHSYLVEHTNAPVRRDLMDEIDWNDRLIGIKGTRGVGKTTFLLQYAKEKFGTDHSCLFINMNNFYFSKYTLVEFAAEFVKRGGKVLLIDQVFKYPEWSHDLRACYEMFPTLKIIFTGSSVMRLKEENPELSGIAKVYYLRGFSFREYLNLQSGNCFRAYTLQEILENHEQIAKTILRNVKPLDYFQDYLHHGFYPFFLEKRNFSENLLKTMNMMIEVDILLIKQIELKYLSKIKKLLYLLAVDGPVAPNVSQLATEIQTSRATVMNYIKYLADARLINMVYPKGEEFPKKPSKLMMHNTNLMYSIYPVKVEEQDVLDTFFMNTLYKDHKLYKGDKGTSFMVDNGLHFRICAEGCKFKNNPNVYYALHKLELGHGNMIPLWLFGFLY	not soluble
MLLELIPLLGIHFVLRTARAQSVTQPDIHITVSEGASLELRCNYSYGATPYLFWMERTVEEAFILLVCLKPWRVASSLEKKEKEDESFQLLLGSRYNVLEAHCLLPLIRWLTSGDSLLSAQPHCPQEL	not soluble

Reference: the DeepSol protein solubility set
